From patent publication US20070100561

Tests used:
[1] = target: enzymatically deglycosylated soluble extracellular domain of human DPP-IV (sDPP-IVdeglycos)
[2] = target: enzymatically deglycosylated soluble extracellular domain of human dipeptidyl peptidase IV (sDPP-IVdeglycos; residues 31-766)
enzymatically deglycosylated soluble extracellular domain of human dipeptidyl peptidase IV (sDPP-IVdeglycos; residues 31-766), sequence (chain, as listed by the source): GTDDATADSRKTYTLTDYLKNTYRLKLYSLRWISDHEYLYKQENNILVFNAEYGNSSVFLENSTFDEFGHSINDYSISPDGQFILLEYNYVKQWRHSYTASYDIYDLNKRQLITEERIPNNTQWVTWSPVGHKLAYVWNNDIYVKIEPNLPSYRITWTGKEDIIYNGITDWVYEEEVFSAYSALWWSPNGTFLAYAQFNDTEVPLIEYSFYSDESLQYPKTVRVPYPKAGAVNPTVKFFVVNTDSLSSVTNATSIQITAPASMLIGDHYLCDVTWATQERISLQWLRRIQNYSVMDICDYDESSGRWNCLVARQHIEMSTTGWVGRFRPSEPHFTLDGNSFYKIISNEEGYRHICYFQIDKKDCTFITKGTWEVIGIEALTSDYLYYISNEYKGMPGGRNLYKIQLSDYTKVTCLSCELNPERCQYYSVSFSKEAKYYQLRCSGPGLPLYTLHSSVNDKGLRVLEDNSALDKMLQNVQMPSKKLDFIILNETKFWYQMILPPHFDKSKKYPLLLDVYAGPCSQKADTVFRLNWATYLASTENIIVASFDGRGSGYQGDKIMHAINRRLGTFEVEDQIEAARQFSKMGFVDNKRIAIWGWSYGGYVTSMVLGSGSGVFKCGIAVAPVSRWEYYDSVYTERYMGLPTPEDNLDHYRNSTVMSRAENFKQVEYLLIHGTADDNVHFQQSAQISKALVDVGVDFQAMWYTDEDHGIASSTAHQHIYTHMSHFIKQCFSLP

enzymatically deglycosylated soluble extracellular domain of human DPP-IV (sDPP-IVdeglycos), sequence (chain, as listed by the source): as above

B1: adenosine deaminase (ADA; Sigma Type IV, from calf intestinal mucosa) (protein)
chain: AQTPAFNKPKVELHVHLDGAIKPETILYYGRKRGIALPADTPEELQNIIGMDKPLSLPEFLAKFDYYMPAIAGCREAVKRIAYEFVEMKAKDGVVYVEVRYSPHLLANSKVEPIPWNQAEGDLTPDEVVSLVNQGLQEGERDFGVKVRSILCCMRHQPSWSSEVVELCKKYREQTVVAIDLAGDETIEGSSLFPGHVKAYAEAVKSGVHRTVHAGEVGSANVVKEAVDTLKTERLGHGYHTLEDATLYNRLRQENMHFEVCPWSSYLTGAWKPDTEHPVVRFKNDQVNYSLNTDDPLIFKSTLDTDYQMTKNEMGFTEEEFKRLNINAAKSSFLPEDEKKELLDLLYKAYGMPSPA
KM (enzyme activity of DPP-IV in the complex with ADA) [1]: 14.8 µM | kcat (enzyme activity of DPP-IV in the complex with ADA) [1]: 39.6 s⁻¹ | kcat/KM (enzyme activity of DPP-IV in the complex with ADA) [1]: 2.68e+06 M⁻¹ s⁻¹ | DPP-IV activity [2]: confirming the independence of DPP-IV activity on ADA binding
